Results reported in paper PMC5336313.

Experiment: anti-Myc western blot of cell extracts and culture media
Settings: glycan lost; control: wild-type C-terminally tagged full-length PEBP4

B1: human PEBP4 (hPEBP4): T171A (protein)
parent chain: MGWTMRLVTAALLLGLMMVVTGDEDENSPCAHEALLDEDTLFCQGLEVFYPELGNIGCKVVPDCNNYRQKITSWMEPIVKFPGAVDGATYILVMVDPDAPSRAEPRQRFWRHWLVTDIKGADLKKGKIQGQELSAYQAPSPPAHSGFHRYQFFVYLQEGKVISLLPKENKTRGSWKMDRFLNRFHLGEPEASTQFMTQNYQDSPTLQAPRERASEPKHKNQAEIAAC
For B1, which expression_or_secretion is on record?
The expression_or_secretion was “no change”.
